Target: T1, MMRN2 (endogenous, HUVEC) (human, UniProt Q9H8L6 23-949)
T1 construct: Endogenous protein in HUVEC lysates (co-immunoprecipitation); also called multimerin-2
T1 sequence (looked up): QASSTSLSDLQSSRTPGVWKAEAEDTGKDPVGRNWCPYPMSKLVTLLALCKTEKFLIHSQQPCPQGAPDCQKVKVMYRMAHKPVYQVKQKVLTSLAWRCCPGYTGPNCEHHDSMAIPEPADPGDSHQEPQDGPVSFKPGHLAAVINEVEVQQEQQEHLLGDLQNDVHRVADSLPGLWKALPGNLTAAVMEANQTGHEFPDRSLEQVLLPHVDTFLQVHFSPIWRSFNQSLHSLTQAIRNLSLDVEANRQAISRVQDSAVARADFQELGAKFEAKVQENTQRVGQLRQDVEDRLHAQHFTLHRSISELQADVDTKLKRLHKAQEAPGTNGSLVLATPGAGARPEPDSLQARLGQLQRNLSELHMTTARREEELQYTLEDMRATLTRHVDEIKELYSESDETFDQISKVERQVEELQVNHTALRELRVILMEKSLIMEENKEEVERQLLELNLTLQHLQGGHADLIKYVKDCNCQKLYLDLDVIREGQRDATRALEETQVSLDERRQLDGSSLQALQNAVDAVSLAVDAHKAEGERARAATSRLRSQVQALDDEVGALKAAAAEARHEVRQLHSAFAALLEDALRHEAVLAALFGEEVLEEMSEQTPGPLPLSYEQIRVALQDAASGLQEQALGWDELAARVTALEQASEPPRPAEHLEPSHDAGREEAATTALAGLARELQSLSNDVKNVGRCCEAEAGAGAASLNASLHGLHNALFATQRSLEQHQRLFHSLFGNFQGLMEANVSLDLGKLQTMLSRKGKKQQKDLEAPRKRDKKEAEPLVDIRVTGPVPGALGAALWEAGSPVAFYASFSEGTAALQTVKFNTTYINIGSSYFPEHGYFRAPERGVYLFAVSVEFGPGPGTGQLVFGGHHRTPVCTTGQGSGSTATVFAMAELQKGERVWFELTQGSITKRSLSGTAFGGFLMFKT
Assay: flow cytometry on HUVEC
Method: FIG. 3. A distinct region of MMRN2 binds CLEC14A in the C-type lectin domain. (A) CLEC14A-ECD-Fc was used to pull down MMRN2^FL from HEK293T transfected lysates. hCLEC14A-ECD-Fc was pre-incubated with either PBS, mouse control IgG, or C1-5. […] (B) Flow cytometry analysis of CLEC14A-ECD-Fc binding to HUVEC surface. CLEC14A-ECD-Fc was pre-incubated with same conditions as in pull downs. […] Mann-Whitney test *p<0.05 n=4 error bars represent standard error mean (SEM). (C) HEK293T transfected with CLEC14A domain deletions were lysed and far western blotted with MMRN2^FL under non-reduced conditions. Upon detection of the MMRN2^FL His tag, MMRN2 binding is observed in all mutants except those lacking the CTLD or sushi domains. CLEC14A blot was included to show expression of each mutant protein. (D) Flow cytometry analysis of HEK293T transfected with chimera 1 CLEC14A^{THBD(CTLD)} or chimera 2 CLEC14A^{THBD(sushi)}. […]
HUVEC or transfected HEK293T cells were detached from tissue culture plates using cell dissociation buffer or scraped and 5×10⁵ cells were stained with 20 ug/mL of antibody of interest or 20 μg/mL of recombinant protein. […] Samples were analysed on a FACSCalibur machine (BD Biosciences). […] Isotype control staining or human Fc alone was used as background fluorescence and this was subtracted from the geometric mean fluorescence intensity of each sample. […]

- binding result: binds
B1: CLEC14A-ECD-Fc (human CLEC14A extracellular domain fused to an Fc tag) (Fc fusion)
chain: EHPTADRAGCSASGACYSLHHATMKRQAAEEACILRGGALSTVRAGAELRAVLALLRAGPGPGGGSKDLLFWVALERRRSHCTLENEPLRGFSWLSSDPGGLESDTLQWVEEPQRSCTARRCAVLQATGGVEPAGWKEMRCHLRANGYLCKYQFEVLCPAPRPGAASNLSYRAPFQLHSAALDFSPPGTEVSALCRGQLPISVTCIADEIGARWDKLSGDVLCPCPGRYLRAGKCAELPNCLDDLGGFACECATGFELGKDGRSCVTSGEGQPTLGGTGVPTRRPPATATSPVPQRTWPIRVDEKLGETPLVPEQDNSVTSIPEIPRWGSQSTMSTLQMSLQAESKATITPSGSVISKFNSTTSSATPQAFDSSS
notes: Expressed in HEK293T cells; also called hCLEC14A-ECD-Fc; C14A-Fc; not shown: human IgG Fc tag

Reference: US20190185532A1 (UNIVERSITY OF BIRMINGHAM, published 2019)
